Measured values taken from patent publication US20260274985A1 (MYTHIC THERAPEUTICS, published 2026).

T1: Human TROP2 Protein, His Tag (human, UniProt P09758 27-274)
T1 construct: Bought protein; also called TACSTD2; not shown: His tag
T1 sequence (looked up): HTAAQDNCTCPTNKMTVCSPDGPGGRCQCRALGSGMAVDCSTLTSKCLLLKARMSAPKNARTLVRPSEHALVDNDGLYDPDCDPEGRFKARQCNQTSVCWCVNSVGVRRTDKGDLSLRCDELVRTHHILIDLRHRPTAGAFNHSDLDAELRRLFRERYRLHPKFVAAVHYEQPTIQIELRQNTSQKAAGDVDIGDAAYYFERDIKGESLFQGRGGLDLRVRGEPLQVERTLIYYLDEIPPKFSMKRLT


Molecular target: T1, Human TROP2 Protein, His Tag
Test: BLI (Octet) [2/2]
Protocol: After allowing for four days of protein expression, cell culture supernatants were collected, quantified by SDS-PAGE analysis (DNS), and the pH dependence of the variant was evaluated using biolayer interferometry (BLI) on an Octet RED 96e instrument. Briefly, cell culture supernatants were diluted based on qualitative expression level of the variant determined by visual examination of SDS-PAGE gels, 5 μL of cell culture supernatant was diluted into 195 μL of 1×PBST, pH 7.4 for high expressors, 25 μL of cell culture supernatant was diluted into 175 μL of 1×PBST, pH 7.4 for medium expressors and 100 μL of cell culture supernatant was diluted into 100 μL of 1×PBST, pH 7.4 for low expressors for loading onto the sensor tips. The resulting diluted supernatants were then captured on an anti-human Fc sensor (Forte Bio). A baseline was established using 1×PBST (50 mM Potassium Phosphate Buffer+150 mM NaCl+0.05% Tween 20) pH 7.4, and the sensor was associated with 50 nM of TROP2 (Human TROP2 Protein, His Tag, Acro Biosystems) in 1×PBST pH 7.4 for 120 sec to generate an association curve. In the dissociation phase, the antibody-antigen complex on the sensor was exposed to 1×PBST pH 7.4 or pH 5.4, for 300 sec. Association and dissociation phase curves were examined for the starting ABPC antibody (with no substitutions) and each corresponding antibody variant at pH 5.4 and pH 7.4 to inform on two criteria: a) enhanced dissociation (i.e., higher koff values) at pH 5.4 due to histidine or alanine substitution compared to the starting ABPC, (with no substitutions), and b) reduced dissociation at pH 7.4 (i.e., lower koff values) compared to pH 5.4 in the antibody variant itself and with the starting ABPC (with no substitutions). […] It was also noted that while some mutations obliterated TROP2 binding, others were tolerated with little or n change in TROP2 binding kinetics.

Binder | binding result
MYT11677 (antibody, V domains shown, IgG from supernatant; His at LCV position 24; also called datopotamab variant L1 01) VH: QVQLVQSGAEVKKPGASVKVSCKASGYTFTTAGMQWVRQAPGQGLEWMGWINTHSGVPKYAEDFKGRVTISADTSTSTAYLQLSSLKSEDTAVYYCARSGFGSSYWYFDVWGQGTLVTVSS VL: DIQMTQSPSSLSASVGDRVTITCHASQDVSTAVAWYQQKPGKAPKLLIYSASYRYTGVPSRFSGSGSGTDFTLTISSLQPEDFAVYYCQQHYITPLTFGQGTKLEIK | binds
MYT11702 (antibody, V domains shown, IgG from supernatant; His at LCV position 96; also called datopotamab variant L3 08) VH: QVQLVQSGAEVKKPGASVKVSCKASGYTFTTAGMQWVRQAPGQGLEWMGWINTHSGVPKYAEDFKGRVTISADTSTSTAYLQLSSLKSEDTAVYYCARSGFGSSYWYFDVWGQGTLVTVSS VL: DIQMTQSPSSLSASVGDRVTITCKASQDVSTAVAWYQQKPGKAPKLLIYSASYRYTGVPSRFSGSGSGTDFTLTISSLQPEDFAVYYCQQHYITPHTFGQGTKLEIK | no binding (tested: 50 nM)
MYT11685 (antibody, V domains shown, IgG from supernatant; His at LCV position 32; also called datopotamab variant L1 09) VH: QVQLVQSGAEVKKPGASVKVSCKASGYTFTTAGMQWVRQAPGQGLEWMGWINTHSGVPKYAEDFKGRVTISADTSTSTAYLQLSSLKSEDTAVYYCARSGFGSSYWYFDVWGQGTLVTVSS VL: DIQMTQSPSSLSASVGDRVTITCKASQDVSTHVAWYQQKPGKAPKLLIYSASYRYTGVPSRFSGSGSGTDFTLTISSLQPEDFAVYYCQQHYITPLTFGQGTKLEIK | no binding (tested: 50 nM)
MYT11692 (antibody, V domains shown, IgG from supernatant; His at LCV position 54; also called datopotamab variant L2 05) VH: QVQLVQSGAEVKKPGASVKVSCKASGYTFTTAGMQWVRQAPGQGLEWMGWINTHSGVPKYAEDFKGRVTISADTSTSTAYLQLSSLKSEDTAVYYCARSGFGSSYWYFDVWGQGTLVTVSS VL: DIQMTQSPSSLSASVGDRVTITCKASQDVSTAVAWYQQKPGKAPKLLIYSASYHYTGVPSRFSGSGSGTDFTLTISSLQPEDFAVYYCQQHYITPLTFGQGTKLEIK | binds
MYT11696 (antibody, V domains shown, IgG from supernatant; His at LCV position 90; also called datopotamab variant L3 02) VH: QVQLVQSGAEVKKPGASVKVSCKASGYTFTTAGMQWVRQAPGQGLEWMGWINTHSGVPKYAEDFKGRVTISADTSTSTAYLQLSSLKSEDTAVYYCARSGFGSSYWYFDVWGQGTLVTVSS VL: DIQMTQSPSSLSASVGDRVTITCKASQDVSTAVAWYQQKPGKAPKLLIYSASYRYTGVPSRFSGSGSGTDFTLTISSLQPEDFAVYYCQHHYITPLTFGQGTKLEIK | binds
MYT11695 (antibody, V domains shown, IgG from supernatant; His at LCV position 89; also called datopotamab variant L3 01) VH: QVQLVQSGAEVKKPGASVKVSCKASGYTFTTAGMQWVRQAPGQGLEWMGWINTHSGVPKYAEDFKGRVTISADTSTSTAYLQLSSLKSEDTAVYYCARSGFGSSYWYFDVWGQGTLVTVSS VL: DIQMTQSPSSLSASVGDRVTITCKASQDVSTAVAWYQQKPGKAPKLLIYSASYRYTGVPSRFSGSGSGTDFTLTISSLQPEDFAVYYCHQHYITPLTFGQGTKLEIK | binds
MYT11700 (antibody, V domains shown, IgG from supernatant; His at LCV position 94; also called datopotamab variant L3 06) VH: QVQLVQSGAEVKKPGASVKVSCKASGYTFTTAGMQWVRQAPGQGLEWMGWINTHSGVPKYAEDFKGRVTISADTSTSTAYLQLSSLKSEDTAVYYCARSGFGSSYWYFDVWGQGTLVTVSS VL: DIQMTQSPSSLSASVGDRVTITCKASQDVSTAVAWYQQKPGKAPKLLIYSASYRYTGVPSRFSGSGSGTDFTLTISSLQPEDFAVYYCQQHYIHPLTFGQGTKLEIK | binds
MYT11703 (antibody, V domains shown, IgG from supernatant; His at LCV position 97; also called datopotamab variant L3 09) VH: QVQLVQSGAEVKKPGASVKVSCKASGYTFTTAGMQWVRQAPGQGLEWMGWINTHSGVPKYAEDFKGRVTISADTSTSTAYLQLSSLKSEDTAVYYCARSGFGSSYWYFDVWGQGTLVTVSS VL: DIQMTQSPSSLSASVGDRVTITCKASQDVSTAVAWYQQKPGKAPKLLIYSASYRYTGVPSRFSGSGSGTDFTLTISSLQPEDFAVYYCQQHYITPLHFGQGTKLEIK | no binding (tested: 50 nM)
MYT11684 (antibody, V domains shown, IgG from supernatant; His at LCV position 31; also called datopotamab variant L1 08) VH: QVQLVQSGAEVKKPGASVKVSCKASGYTFTTAGMQWVRQAPGQGLEWMGWINTHSGVPKYAEDFKGRVTISADTSTSTAYLQLSSLKSEDTAVYYCARSGFGSSYWYFDVWGQGTLVTVSS VL: DIQMTQSPSSLSASVGDRVTITCKASQDVSHAVAWYQQKPGKAPKLLIYSASYRYTGVPSRFSGSGSGTDFTLTISSLQPEDFAVYYCQQHYITPLTFGQGTKLEIK | binds
MYT11698 (antibody, V domains shown, IgG from supernatant; His at LCV position 92; also called datopotamab variant L3 04) VH: QVQLVQSGAEVKKPGASVKVSCKASGYTFTTAGMQWVRQAPGQGLEWMGWINTHSGVPKYAEDFKGRVTISADTSTSTAYLQLSSLKSEDTAVYYCARSGFGSSYWYFDVWGQGTLVTVSS VL: DIQMTQSPSSLSASVGDRVTITCKASQDVSTAVAWYQQKPGKAPKLLIYSASYRYTGVPSRFSGSGSGTDFTLTISSLQPEDFAVYYCQQHHITPLTFGQGTKLEIK | no binding (tested: 50 nM)
MYT11686 (antibody, V domains shown, IgG from supernatant; His at LCV position 33; also called datopotamab variant L1 10) VH: QVQLVQSGAEVKKPGASVKVSCKASGYTFTTAGMQWVRQAPGQGLEWMGWINTHSGVPKYAEDFKGRVTISADTSTSTAYLQLSSLKSEDTAVYYCARSGFGSSYWYFDVWGQGTLVTVSS VL: DIQMTQSPSSLSASVGDRVTITCKASQDVSTAHAWYQQKPGKAPKLLIYSASYRYTGVPSRFSGSGSGTDFTLTISSLQPEDFAVYYCQQHYITPLTFGQGTKLEIK | binds
MYT11701 (antibody, V domains shown, IgG from supernatant; His at LCV position 95; also called datopotamab variant L3 07) VH: QVQLVQSGAEVKKPGASVKVSCKASGYTFTTAGMQWVRQAPGQGLEWMGWINTHSGVPKYAEDFKGRVTISADTSTSTAYLQLSSLKSEDTAVYYCARSGFGSSYWYFDVWGQGTLVTVSS VL: DIQMTQSPSSLSASVGDRVTITCKASQDVSTAVAWYQQKPGKAPKLLIYSASYRYTGVPSRFSGSGSGTDFTLTISSLQPEDFAVYYCQQHYITHLTFGQGTKLEIK | binds
MYT11693 (antibody, V domains shown, IgG from supernatant; His at LCV position 55; also called datopotamab variant L2 06) VH: QVQLVQSGAEVKKPGASVKVSCKASGYTFTTAGMQWVRQAPGQGLEWMGWINTHSGVPKYAEDFKGRVTISADTSTSTAYLQLSSLKSEDTAVYYCARSGFGSSYWYFDVWGQGTLVTVSS VL: DIQMTQSPSSLSASVGDRVTITCKASQDVSTAVAWYQQKPGKAPKLLIYSASYRHTGVPSRFSGSGSGTDFTLTISSLQPEDFAVYYCQQHYITPLTFGQGTKLEIK | binds
MYT11697 (antibody, V domains shown, IgG from supernatant; Ala at LCV position 91 (starting residue His); also called datopotamab variant L3 03) VH: QVQLVQSGAEVKKPGASVKVSCKASGYTFTTAGMQWVRQAPGQGLEWMGWINTHSGVPKYAEDFKGRVTISADTSTSTAYLQLSSLKSEDTAVYYCARSGFGSSYWYFDVWGQGTLVTVSS VL: DIQMTQSPSSLSASVGDRVTITCKASQDVSTAVAWYQQKPGKAPKLLIYSASYRYTGVPSRFSGSGSGTDFTLTISSLQPEDFAVYYCQQAYITPLTFGQGTKLEIK | binds
MYT11694 (antibody, V domains shown, IgG from supernatant; His at LCV position 56; also called datopotamab variant L2 07) VH: QVQLVQSGAEVKKPGASVKVSCKASGYTFTTAGMQWVRQAPGQGLEWMGWINTHSGVPKYAEDFKGRVTISADTSTSTAYLQLSSLKSEDTAVYYCARSGFGSSYWYFDVWGQGTLVTVSS VL: DIQMTQSPSSLSASVGDRVTITCKASQDVSTAVAWYQQKPGKAPKLLIYSASYRYHGVPSRFSGSGSGTDFTLTISSLQPEDFAVYYCQQHYITPLTFGQGTKLEIK | binds
MYT11683 (antibody, V domains shown, IgG from supernatant; His at LCV position 30; also called datopotamab variant L1 07) VH: QVQLVQSGAEVKKPGASVKVSCKASGYTFTTAGMQWVRQAPGQGLEWMGWINTHSGVPKYAEDFKGRVTISADTSTSTAYLQLSSLKSEDTAVYYCARSGFGSSYWYFDVWGQGTLVTVSS VL: DIQMTQSPSSLSASVGDRVTITCKASQDVHTAVAWYQQKPGKAPKLLIYSASYRYTGVPSRFSGSGSGTDFTLTISSLQPEDFAVYYCQQHYITPLTFGQGTKLEIK | binds
MYT11689 (antibody, V domains shown, IgG from supernatant; His at LCV position 51; also called datopotamab variant L2 02) VH: QVQLVQSGAEVKKPGASVKVSCKASGYTFTTAGMQWVRQAPGQGLEWMGWINTHSGVPKYAEDFKGRVTISADTSTSTAYLQLSSLKSEDTAVYYCARSGFGSSYWYFDVWGQGTLVTVSS VL: DIQMTQSPSSLSASVGDRVTITCKASQDVSTAVAWYQQKPGKAPKLLIYSHSYRYTGVPSRFSGSGSGTDFTLTISSLQPEDFAVYYCQQHYITPLTFGQGTKLEIK | binds
MYT11681 (antibody, V domains shown, IgG from supernatant; His at LCV position 28; also called datopotamab variant L1 05) VH: QVQLVQSGAEVKKPGASVKVSCKASGYTFTTAGMQWVRQAPGQGLEWMGWINTHSGVPKYAEDFKGRVTISADTSTSTAYLQLSSLKSEDTAVYYCARSGFGSSYWYFDVWGQGTLVTVSS VL: DIQMTQSPSSLSASVGDRVTITCKASQHVSTAVAWYQQKPGKAPKLLIYSASYRYTGVPSRFSGSGSGTDFTLTISSLQPEDFAVYYCQQHYITPLTFGQGTKLEIK | binds
